Assay results published in patent US10947296B2, “Fusion protein Slit2D2(C386S)-HSA and use thereof in treatment of fibrotic diseases” (SUZHOU THINKING POWER BIOTECHNOLOGY CO., LTD., priority 2016, dated 2021).

Experiments:
[1] = molecular target: T1, Robo1 protein (Homo sapiens, UniProt Q9Y6N7); experiment: Affinity of the fusion protein to receptor Robo1 determined by SPR; assay type: binding; settings: Robo1 bound to CM5 chip
T1 construct: purchased ORIGEN TP327713
Experimental: The affinity constant between the protein and Robo1 protein was detected by SPR (Surface Plasmon resonance BIAcore 200) method. The Robo1 protein (ORIGEN, Art. No.: TP327713) was bound to a CM5 chip, and the interaction between the fusion protein Slit2D2(C386S)-HSA (prepared in Example 1), Slit2D2-HSA (as disclosed in Patent Application PCT/CN2015/092079), and the receptor protein Robo1 were analyzed. Kinetic measurements were performed according to the method referred by Canziani et al. (2004, Anal. Biochem. 325: 301-307). Furthermore, the affinity of the Slit2N protein (Slit2N is a protein having a molecular weight of about 120 kDa at the N-terminus of the Slit2 protein) to Robo1 protein was also determined by the same method.

[2] = Pharmacokinetic assay, single intravenous administration; assay type: in vivo; settings: for Plasma drug concentration: IV 2 mg/kg
Experimental: Lines and sources: cynomolgus monkeys, Guangxi Xiongsen Primate Laboratory Animal Breeding Development Co., Ltd.
The test substance was administered in a single dose by intravenous injection.
The blood samples were collected and centrifuged to separate plasma (centrifugation conditions: 8000 rpm, 6 minutes, 2-8° C.). The contents of the label included: the subject number of Medicilon Pharmaceutical Technology (Shanghai) Co., Ltd., relevant test days, serial number of animals, date, and sampling time point. The collected plasma samples were stored in a refrigerator at ≤−65° C. before analysis. After analysis, the remaining plasma samples were stored in the refrigerator at ≤−65° C. for subsequent processing.
The biological sample analysis method and analysis of all samples were performed by the analytical laboratory of Medicilon Pharmaceutical Technology (Shanghai) Co., Ltd. Each plate in the sample analysis must contain a standard curve. At least ¾ of the points and not less than 6 non-zero concentration points (without anchor points) constituting the standard curve should meet the acceptance criteria for method validation. Each plate should also contain at least 2 sets and each set comprised at least 3 quality control samples of different concentration levels (high-concentration quality control, intermediate-concentration quality control, and low-concentration quality control).
The pharmacokinetic parameters were calculated with non-compartmental model using Phoenix pharmacokinetic software: AUC0-t, AUC0-∞, Cmax, t1/2, Tmax, C0, Cl, MRT0-∞ and Vss.

[3] = Mean of 4 animals, single IV 2 mg/kg

T1 sequence (Q9Y6N7 26-1651): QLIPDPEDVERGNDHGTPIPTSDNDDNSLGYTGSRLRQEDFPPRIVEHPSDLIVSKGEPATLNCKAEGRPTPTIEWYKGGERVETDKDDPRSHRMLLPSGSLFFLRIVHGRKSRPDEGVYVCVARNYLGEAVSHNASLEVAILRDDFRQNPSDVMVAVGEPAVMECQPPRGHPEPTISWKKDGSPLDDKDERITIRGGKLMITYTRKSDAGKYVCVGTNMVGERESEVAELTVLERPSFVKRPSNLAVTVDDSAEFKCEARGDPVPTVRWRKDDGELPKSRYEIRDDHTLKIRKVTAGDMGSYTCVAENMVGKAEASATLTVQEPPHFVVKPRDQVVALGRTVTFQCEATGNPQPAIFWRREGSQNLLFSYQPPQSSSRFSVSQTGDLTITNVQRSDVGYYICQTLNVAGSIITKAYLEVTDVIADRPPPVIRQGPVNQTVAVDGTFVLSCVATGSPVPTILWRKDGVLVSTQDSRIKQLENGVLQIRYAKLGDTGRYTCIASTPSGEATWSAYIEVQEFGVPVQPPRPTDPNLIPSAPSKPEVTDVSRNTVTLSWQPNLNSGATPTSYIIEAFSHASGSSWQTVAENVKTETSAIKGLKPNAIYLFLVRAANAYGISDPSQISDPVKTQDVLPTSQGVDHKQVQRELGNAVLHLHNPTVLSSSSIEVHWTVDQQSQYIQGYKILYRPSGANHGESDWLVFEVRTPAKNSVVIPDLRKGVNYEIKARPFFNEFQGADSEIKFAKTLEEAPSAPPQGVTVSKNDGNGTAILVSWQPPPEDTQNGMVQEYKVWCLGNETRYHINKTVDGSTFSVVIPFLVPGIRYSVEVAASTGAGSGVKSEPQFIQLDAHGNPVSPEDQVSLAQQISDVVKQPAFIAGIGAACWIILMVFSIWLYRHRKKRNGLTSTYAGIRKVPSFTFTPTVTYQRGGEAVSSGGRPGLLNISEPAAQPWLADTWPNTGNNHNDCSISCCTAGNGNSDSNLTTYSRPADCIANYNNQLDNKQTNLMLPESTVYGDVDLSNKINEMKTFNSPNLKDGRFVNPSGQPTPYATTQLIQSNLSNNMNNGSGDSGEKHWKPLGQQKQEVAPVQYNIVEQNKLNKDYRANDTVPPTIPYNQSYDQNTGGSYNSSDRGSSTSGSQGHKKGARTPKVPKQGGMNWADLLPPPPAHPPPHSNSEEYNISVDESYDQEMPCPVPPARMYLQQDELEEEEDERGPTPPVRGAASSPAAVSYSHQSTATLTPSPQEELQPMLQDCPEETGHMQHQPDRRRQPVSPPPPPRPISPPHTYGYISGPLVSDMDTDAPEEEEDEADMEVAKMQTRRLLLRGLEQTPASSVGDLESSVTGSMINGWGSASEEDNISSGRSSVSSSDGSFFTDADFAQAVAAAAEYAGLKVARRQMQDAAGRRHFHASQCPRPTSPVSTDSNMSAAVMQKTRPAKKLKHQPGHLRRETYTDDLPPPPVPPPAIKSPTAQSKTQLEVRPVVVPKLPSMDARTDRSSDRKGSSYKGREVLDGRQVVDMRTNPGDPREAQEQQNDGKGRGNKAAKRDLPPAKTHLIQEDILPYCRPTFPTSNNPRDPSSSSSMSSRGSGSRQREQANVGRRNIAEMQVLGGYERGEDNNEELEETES

Slit2D2(C386S)-HSA: Fusion protein of the Slit2 D2 domain with C386S mutation linked to human serum albumin; amino acid sequence SEQ ID NO: 3
Ka [1]: 864700 M⁻¹ s⁻¹ | Plasma drug concentration ([2]; 101-Male, day 0.125): 16151.832 ng/mL | Plasma drug concentration ([2]; 101-Male, day 0.25): 15501.583 ng/mL | Plasma drug concentration ([2]; 101-Male, day 0.5): 13047.082 ng/mL | Plasma drug concentration ([2]; 101-Male, day 2): 11326.279 ng/mL | Plasma drug concentration ([2]; 101-Male, day 5): 6773.314 ng/mL | Plasma drug concentration ([2]; 101-Male, day 6): 2717.981 ng/mL | Plasma drug concentration ([2]; 101-Male, day 8): 1577.577 ng/mL | Plasma drug concentration ([2]; 101-Male, day 11): BLQ (Below the minimum limit of quantitation) | Plasma drug concentration ([2]; 101-Male, day 14): BLQ (Below the minimum limit of quantitation) | Plasma drug concentration ([2]; 101-Male, day 17): BLQ (Below the minimum limit of quantitation) | Plasma drug concentration ([2]; 101-Male, day 19): BLQ (Below the minimum limit of quantitation) | Plasma drug concentration ([2]; 101-Male, day 22): BLQ (Below the minimum limit of quantitation) | Plasma drug concentration ([2]; 101-Male, day 26): BLQ (Below the minimum limit of quantitation) | Plasma drug concentration ([2]; 101-Male, day 29): BLQ (Below the minimum limit of quantitation) | Plasma drug concentration ([2]; 101-Male, day 36): BLQ (Below the minimum limit of quantitation) | Plasma drug concentration ([2]; 101-Male, day 43): BLQ (Below the minimum limit of quantitation) | AUC(0-t) ([2]; 101-Male, single IV 2 mg/kg): 45588.03 ng·days/mL | AUC(0-∞) ([2]; 101-Male, single IV 2 mg/kg): 50239.09 ng·days/mL | C0 ([2]; 101-Male, single IV 2 mg/kg): 16829.36 ng/mL | CL ([2]; 101-Male, single IV 2 mg/kg): 39.81 mL/day/kg | Cmax ([2]; 101-Male, single IV 2 mg/kg): 16151.83 ng/mL | MRT(0-∞) ([2]; 101-Male, single IV 2 mg/kg): 2.84 days | Tmax ([2]; 101-Male, single IV 2 mg/kg): 0.13 days | Vss ([2]; 101-Male, single IV 2 mg/kg): 113.09 mL/kg | t1/2 ([2]; 101-Male, single IV 2 mg/kg): 2.04 days | Plasma drug concentration ([2]; 102-Male, day 0.125): 12629.116 ng/mL | Plasma drug concentration ([2]; 102-Male, day 0.25): 13612.467 ng/mL | Plasma drug concentration ([2]; 102-Male, day 0.5): 13169.983 ng/mL | Plasma drug concentration ([2]; 102-Male, day 2): 8055.924 ng/mL | Plasma drug concentration ([2]; 102-Male, day 5): 4063.179 ng/mL | Plasma drug concentration ([2]; 102-Male, day 6): 2215.633 ng/mL | Plasma drug concentration ([2]; 102-Male, day 8): BLQ (Below the minimum limit of quantitation) | Plasma drug concentration ([2]; 102-Male, day 11): BLQ (Below the minimum limit of quantitation) | Plasma drug concentration ([2]; 102-Male, day 14): BLQ (Below the minimum limit of quantitation) | Plasma drug concentration ([2]; 102-Male, day 17): BLQ (Below the minimum limit of quantitation) | Plasma drug concentration ([2]; 102-Male, day 19): BLQ (Below the minimum limit of quantitation) | Plasma drug concentration ([2]; 102-Male, day 22): BLQ (Below the minimum limit of quantitation) | Plasma drug concentration ([2]; 102-Male, day 26): BLQ (Below the minimum limit of quantitation) | Plasma drug concentration ([2]; 102-Male, day 29): BLQ (Below the minimum limit of quantitation) | Plasma drug concentration ([2]; 102-Male, day 36): BLQ (Below the minimum limit of quantitation) | Plasma drug concentration ([2]; 102-Male, day 43): BLQ (Below the minimum limit of quantitation) | AUC(0-t) ([2]; 102-Male, single IV 2 mg/kg): 30270.94 ng·days/mL | AUC(0-∞) ([2]; 102-Male, single IV 2 mg/kg): 37136.49 ng·days/mL | C0 ([2]; 102-Male, single IV 2 mg/kg): 12629.12 ng/mL | CL ([2]; 102-Male, single IV 2 mg/kg): 53.86 mL/day/kg | Cmax ([2]; 102-Male, single IV 2 mg/kg): 13612.47 ng/mL | MRT(0-∞) ([2]; 102-Male, single IV 2 mg/kg): 2.81 days | Tmax ([2]; 102-Male, single IV 2 mg/kg): 0.25 days | Vss ([2]; 102-Male, single IV 2 mg/kg): 151.45 mL/kg | t1/2 ([2]; 102-Male, single IV 2 mg/kg): 2.15 days | Plasma drug concentration ([2]; 103-Female, day 0.125): 13162.76 ng/mL | Plasma drug concentration ([2]; 103-Female, day 0.25): 11266.684 ng/mL | Plasma drug concentration ([2]; 103-Female, day 0.5): 9508.594 ng/mL | Plasma drug concentration ([2]; 103-Female, day 2): 5952.269 ng/mL | Plasma drug concentration ([2]; 103-Female, day 5): 3914.939 ng/mL | Plasma drug concentration ([2]; 103-Female, day 6): 2155.966 ng/mL | Plasma drug concentration ([2]; 103-Female, day 8): 731.688 ng/mL | Plasma drug concentration ([2]; 103-Female, day 11): BLQ (Below the minimum limit of quantitation) | Plasma drug concentration ([2]; 103-Female, day 14): BLQ (Below the minimum limit of quantitation) | Plasma drug concentration ([2]; 103-Female, day 17): BLQ (Below the minimum limit of quantitation) | Plasma drug concentration ([2]; 103-Female, day 19): BLQ (Below the minimum limit of quantitation) | Plasma drug concentration ([2]; 103-Female, day 22): BLQ (Below the minimum limit of quantitation) | Plasma drug concentration ([2]; 103-Female, day 26): BLQ (Below the minimum limit of quantitation) | Plasma drug concentration ([2]; 103-Female, day 29): BLQ (Below the minimum limit of quantitation) | Plasma drug concentration ([2]; 103-Female, day 36): BLQ (Below the minimum limit of quantitation) | Plasma drug concentration ([2]; 103-Female, day 43): BLQ (Below the minimum limit of quantitation) | AUC(0-t) ([2]; 103-Female, single IV 2 mg/kg): 28598.53 ng·days/mL | AUC(0-∞) ([2]; 103-Female, single IV 2 mg/kg): 30524.24 ng·days/mL | C0 ([2]; 103-Female, single IV 2 mg/kg): 15377.93 ng/mL | CL ([2]; 103-Female, single IV 2 mg/kg): 65.52 mL/day/kg | Cmax ([2]; 103-Female, single IV 2 mg/kg): 13162.76 ng/mL | MRT(0-∞) ([2]; 103-Female, single IV 2 mg/kg): 2.58 days | Tmax ([2]; 103-Female, single IV 2 mg/kg): 0.13 days | Vss ([2]; 103-Female, single IV 2 mg/kg): 168.88 mL/kg | t1/2 ([2]; 103-Female, single IV 2 mg/kg): 1.82 days | Plasma drug concentration ([2]; 104-Female, day 0.125): 13541.873 ng/mL | Plasma drug concentration ([2]; 104-Female, day 0.25): 12289.107 ng/mL | Plasma drug concentration ([2]; 104-Female, day 0.5): 10597.55 ng/mL | Plasma drug concentration ([2]; 104-Female, day 2): 8296.324 ng/mL | Plasma drug concentration ([2]; 104-Female, day 5): 3663.777 ng/mL | Plasma drug concentration ([2]; 104-Female, day 6): 1433.272 ng/mL | Plasma drug concentration ([2]; 104-Female, day 8): BLQ (Below the minimum limit of quantitation) | Plasma drug concentration ([2]; 104-Female, day 11): BLQ (Below the minimum limit of quantitation) | Plasma drug concentration ([2]; 104-Female, day 14): BLQ (Below the minimum limit of quantitation) | Plasma drug concentration ([2]; 104-Female, day 17): BLQ (Below the minimum limit of quantitation) | Plasma drug concentration ([2]; 104-Female, day 19): BLQ (Below the minimum limit of quantitation) | Plasma drug concentration ([2]; 104-Female, day 22): BLQ (Below the minimum limit of quantitation) | Plasma drug concentration ([2]; 104-Female, day 26): BLQ (Below the minimum limit of quantitation) | Plasma drug concentration ([2]; 104-Female, day 29): BLQ (Below the minimum limit of quantitation) | Plasma drug concentration ([2]; 104-Female, day 36): BLQ (Below the minimum limit of quantitation) | Plasma drug concentration ([2]; 104-Female, day 43): BLQ (Below the minimum limit of quantitation) | AUC(0-t) ([2]; 104-Female, single IV 2 mg/kg): 28034.90 ng·days/mL | AUC(0-∞) ([2]; 104-Female, single IV 2 mg/kg): 31263.33 ng·days/mL | C0 ([2]; 104-Female, single IV 2 mg/kg): 14922.35 ng/mL | CL ([2]; 104-Female, single IV 2 mg/kg): 63.97 mL/day/kg | Cmax ([2]; 104-Female, single IV 2 mg/kg): 13541.87 ng/mL | MRT(0-∞) ([2]; 104-Female, single IV 2 mg/kg): 2.10 days | Tmax ([2]; 104-Female, single IV 2 mg/kg): 0.13 days | Vss ([2]; 104-Female, single IV 2 mg/kg): 134.46 mL/kg | t1/2 ([2]; 104-Female, single IV 2 mg/kg): 1.56 days | AUC(0-t) [2, 3]: 33123.10 ng·days/mL | AUC(0-∞) [2, 3]: 37290.79 ng·days/mL | C0 [2, 3]: 14939.69 ng/mL | CL [2, 3]: 55.79 mL/day/kg | Cmax [2, 3]: 14117.23 ng/mL | MRT(0-∞) [2, 3]: 2.58 days | Tmax [2, 3]: 0.16 days | Vss [2, 3]: 141.97 mL/kg | t1/2 [2, 3]: 1.89 days | Plasma drug concentration ([2]; Mean, day 0.125): 13871.40 ng/mL | Plasma drug concentration ([2]; Mean, day 0.25): 13167.46 ng/mL | Plasma drug concentration ([2]; Mean, day 0.5): 11580.80 ng/mL | Plasma drug concentration ([2]; Mean, day 2): 8407.70 ng/mL | Plasma drug concentration ([2]; Mean, day 5): 4603.80 ng/mL | Plasma drug concentration ([2]; Mean, day 6): 2130.71 ng/mL | Plasma drug concentration ([2]; Mean, day 8): 1154.63 ng/mL | Observation during the test (morbidity, damage, death rate, food and water supply) ([2]; single IV 2 mg/kg): No abnormal findings | ratio of AUC(0-∞) between male and female ([2]; single IV 2 mg/kg): 1.41 | ratio of Cmax between male and female ([2]; single IV 2 mg/kg): 1.11 | ratio of t1/2 between male and female ([2]; single IV 2 mg/kg): 1.24
